Experimental data from PMC5563082, “Structural Mechanism for Modulation of Synaptic Neuroligin-Neurexin Signaling by MDGA Proteins” (Neuron, 2017).

T1: human MDGA1 extracellular domain (MDGA1_(ECTO); Gln19-Lys925) (human, UniProt Q8NFP4-1 19-925)
T1 construct: human MAM domain-containing glycosylphosphatidylinositol anchor protein 1, Gln19-Lys925; Not deglycosylated; also called human MDGA1_(ECTO); source: HEK293T, transient transfection, purified (IMAC, SEC)
T1 sequence (looked up): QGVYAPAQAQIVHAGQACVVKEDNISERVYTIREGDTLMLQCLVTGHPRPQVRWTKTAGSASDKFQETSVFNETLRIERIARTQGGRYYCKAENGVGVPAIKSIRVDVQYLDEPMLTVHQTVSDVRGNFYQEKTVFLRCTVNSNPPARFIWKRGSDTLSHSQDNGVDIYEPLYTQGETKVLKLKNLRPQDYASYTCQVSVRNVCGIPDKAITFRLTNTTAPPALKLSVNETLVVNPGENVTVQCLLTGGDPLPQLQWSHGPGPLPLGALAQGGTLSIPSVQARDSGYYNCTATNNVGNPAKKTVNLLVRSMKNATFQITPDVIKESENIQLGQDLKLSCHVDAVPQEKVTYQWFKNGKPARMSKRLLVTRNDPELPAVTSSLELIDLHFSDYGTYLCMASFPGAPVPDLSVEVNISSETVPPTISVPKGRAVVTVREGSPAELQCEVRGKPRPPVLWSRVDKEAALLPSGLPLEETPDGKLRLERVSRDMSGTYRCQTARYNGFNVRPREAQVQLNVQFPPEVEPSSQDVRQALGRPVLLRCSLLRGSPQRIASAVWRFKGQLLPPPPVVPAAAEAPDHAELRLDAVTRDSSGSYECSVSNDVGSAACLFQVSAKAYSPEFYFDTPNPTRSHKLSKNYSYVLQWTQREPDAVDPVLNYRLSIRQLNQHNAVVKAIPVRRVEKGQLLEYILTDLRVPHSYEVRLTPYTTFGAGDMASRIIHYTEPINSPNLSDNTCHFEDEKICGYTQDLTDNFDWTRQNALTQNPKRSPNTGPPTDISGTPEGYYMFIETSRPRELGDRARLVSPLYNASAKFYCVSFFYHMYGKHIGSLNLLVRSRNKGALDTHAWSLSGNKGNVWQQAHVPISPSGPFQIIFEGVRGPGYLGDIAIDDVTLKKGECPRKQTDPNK

T2: human MDGA2 extracellular domain (MDGA2_(ECTO); Gln21-Lys927) (human, UniProt Q7Z553 21-927)
T2 construct: human MAM domain-containing glycosylphosphatidylinositol anchor protein 2, Gln21-Lys927; Not deglycosylated; source: HEK293T, transient transfection, purified (IMAC, SEC)
T2 sequence (looked up): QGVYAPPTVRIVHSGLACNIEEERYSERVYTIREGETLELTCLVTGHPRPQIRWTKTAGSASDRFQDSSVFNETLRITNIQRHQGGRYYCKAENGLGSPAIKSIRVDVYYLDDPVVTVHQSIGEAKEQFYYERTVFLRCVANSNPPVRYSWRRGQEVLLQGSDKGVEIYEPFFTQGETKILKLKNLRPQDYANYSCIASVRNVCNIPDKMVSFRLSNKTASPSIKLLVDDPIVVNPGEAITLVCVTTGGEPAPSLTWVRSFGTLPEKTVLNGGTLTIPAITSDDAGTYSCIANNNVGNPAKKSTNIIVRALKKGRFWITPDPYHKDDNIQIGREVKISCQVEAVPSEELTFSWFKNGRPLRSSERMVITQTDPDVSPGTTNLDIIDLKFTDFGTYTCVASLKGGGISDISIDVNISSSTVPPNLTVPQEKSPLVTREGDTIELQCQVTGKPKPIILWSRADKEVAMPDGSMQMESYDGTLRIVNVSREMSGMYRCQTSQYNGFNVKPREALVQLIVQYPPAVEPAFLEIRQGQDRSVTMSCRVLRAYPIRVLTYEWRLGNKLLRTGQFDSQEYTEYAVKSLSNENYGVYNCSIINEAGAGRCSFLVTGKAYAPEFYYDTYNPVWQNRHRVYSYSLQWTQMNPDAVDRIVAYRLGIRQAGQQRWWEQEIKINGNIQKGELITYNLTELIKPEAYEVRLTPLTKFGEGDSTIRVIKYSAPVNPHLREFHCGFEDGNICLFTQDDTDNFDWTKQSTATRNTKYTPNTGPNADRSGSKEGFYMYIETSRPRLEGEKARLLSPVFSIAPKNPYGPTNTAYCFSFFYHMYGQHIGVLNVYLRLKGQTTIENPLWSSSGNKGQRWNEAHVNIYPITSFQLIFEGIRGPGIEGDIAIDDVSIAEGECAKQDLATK

B1: human NL3(+A1+A2)_(ECTO), immobilised for SPR (domain or fragment, UniProt Q9NZ94-1 38-636, looked up)
chain: QAPAPTVNTHFGKLRGARVPLPSEILGPVDQYLGVPYAAPPIGEKRFLPPEPPPSWSGIRNATHFPPVCPQNIHTAVPEVMLPVWFTANLDIVATYIQEPNEDCLYLNVYVPTEDVKRISKECARKPNKKICRKGGSGAKKQGEDLADNDGDEDEDIRDSGAKPVMVYIHGGSYMEGTGNMIDGSILASYGNVIVITLNYRVGVLGFLSTGDQAAKGNYGLLDQIQALRWVSENIAFFGGDPRRITVFGSGIGASCVSLLTLSHHSEGLFQRAIIQSGSALSSWAVNYQPVKYTSLLADKVGCNVLDTVDMVDCLRQKSAKELVEQDIQPARYHVAFGPVIDGDVIPDDPEILMEQGEFLNYDIMLGVNQGEGLKFVEGVVDPEDGVSGTDFDYSVSNFVDNLYGYPEGKDTLRETIKFMYTDWADRDNPETRRKTLVALFTDHQWVEPSVVTADLHARYGSPTYFYAFYHHCQSLMKPAWSDAAHGDEVPYVFGVPMVGPTDLFPCNFSKNDVMLSAVVMTYWTNFAKTGDPNKPVPQDTKFIHTKANRFEEVAWSKYNPRDQLYLHIGLKPRVRDHYRATKVAFWKHLVPHLYNLHD
modifications: biotin on the Avitag (in vivo biotinylation by BirA)
notes: source: HEK293T, co-transfected with ER-resident BirA; dialysed conditioned medium, captured on streptavidin chip
B2: human NL3(+A2)_(ECTO), immobilised for SPR (domain or fragment, UniProt Q9NZ94-1 38-636, looked up)
chain: QAPAPTVNTHFGKLRGARVPLPSEILGPVDQYLGVPYAAPPIGEKRFLPPEPPPSWSGIRNATHFPPVCPQNIHTAVPEVMLPVWFTANLDIVATYIQEPNEDCLYLNVYVPTEDGSGAKKQGEDLADNDGDEDEDIRDSGAKPVMVYIHGGSYMEGTGNMIDGSILASYGNVIVITLNYRVGVLGFLSTGDQAAKGNYGLLDQIQALRWVSENIAFFGGDPRRITVFGSGIGASCVSLLTLSHHSEGLFQRAIIQSGSALSSWAVNYQPVKYTSLLADKVGCNVLDTVDMVDCLRQKSAKELVEQDIQPARYHVAFGPVIDGDVIPDDPEILMEQGEFLNYDIMLGVNQGEGLKFVEGVVDPEDGVSGTDFDYSVSNFVDNLYGYPEGKDTLRETIKFMYTDWADRDNPETRRKTLVALFTDHQWVEPSVVTADLHARYGSPTYFYAFYHHCQSLMKPAWSDAAHGDEVPYVFGVPMVGPTDLFPCNFSKNDVMLSAVVMTYWTNFAKTGDPNKPVPQDTKFIHTKANRFEEVAWSKYNPRDQLYLHIGLKPRVRDHYRATKVAFWKHLVPHLYNLHD
modifications: biotin on the Avitag (in vivo biotinylation by BirA)
notes: as for B1

What was measured:
[1] = target: T1, human MDGA1 extracellular domain …; test: SPR; biotinylated NL_(ECTO)-Avitag variants captured from dialysed conditioned medium on streptavidin CM5 chip (500 RU; 550 RU for the ΔSite series; 1000 RU for NL3 and NL3 Arg451Cys in the R451C series); β-NRX1_(LNS6)(±4), MDGA1_(ECTO), MDGA2_(ECTO) injected, 15 concentrations, two-fold series from 50 μM; TBS-CTB (10 mM Tris pH 7.4, 150 mM NaCl, 3 mM CaCl2, 0.005% Tween-20, 1.0 g/L BSA); equilibrium analysis, 1:1 …; conditions: both partners purified
[2] = target: T2, human MDGA2 extracellular domain …; test: as above; conditions: both partners purified

Row | binding result [1] | binding result [2] | Binder
1 | binds | binds | B1
2 | binds | binds | B2
